According to patent US20250361288A1 (Gilead, published 2025):

T1: human HVEM extracellular domain fused with an Fc fragment at the C-terminus (human, UniProt Q92956 39-202)
T1 construct: extracellular domain; Bought; also called hHVEM; not shown: Fc fragment at the C-terminus
T1 sequence (looked up): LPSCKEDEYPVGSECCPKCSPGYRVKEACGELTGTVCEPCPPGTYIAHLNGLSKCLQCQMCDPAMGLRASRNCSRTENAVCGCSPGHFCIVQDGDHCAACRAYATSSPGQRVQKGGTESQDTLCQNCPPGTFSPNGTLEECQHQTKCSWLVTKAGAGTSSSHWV

T2: mouse HVEM extracellular domain fused with an Fc fragment at the C-terminus (mouse, UniProt Q80WM9 39-206, limits assumed)
T2 construct: extracellular domain; Bought; also called mHVEM; not shown: Fc fragment at the C-terminus
T2 sequence (looked up): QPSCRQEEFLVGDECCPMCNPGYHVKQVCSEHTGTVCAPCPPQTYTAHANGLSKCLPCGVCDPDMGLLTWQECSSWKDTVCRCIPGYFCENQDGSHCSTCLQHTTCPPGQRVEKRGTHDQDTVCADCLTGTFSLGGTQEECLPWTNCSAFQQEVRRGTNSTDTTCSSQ

B1: LIGHT-20 (ligand)
chain: DGPAGSWEQLIQERRSHEVNPAAHLTGANSSLTGSGGPLLWETQLGLAFLRGLSYHDGALVVTKAGYYYIYSKVQLGGVGCPLGLAATITHGLYKRTPRYPEELELLVSQQSPCGRATSSSRVWWDSSFLGGVVHLEAGEKVVVRVSDDRLVRLRDGTRSYFGAFMV
notes: Printed mutations: S160A, L220S, E222D; Soluble protein carries an N-terminal His tag
B2: LIGHT-39 (ligand)
chain: DGPAGSWEQLIQERRSHEVNPAAHLTGANSSLTGSGGPLLWETQLGLAFLRGLSYHDGALVVTKAGYYYIYSKVQLGGVGCPLGPASTITHGMYKRTPRYPEELELLVSQQSPCGRATSSSRVWWDSSFLGGVVHLEAGEKVVVRVMDERLVRLRDGTRSYFGAFMV
notes: Printed mutations: L158P, L166M, L220M; Soluble protein carries an N-terminal His tag
B3: LIGHT-23 (ligand)
chain: DGPAGSWEQLIQERRSHEVNPAAHLTGANSSLTGSGGPLLWETQLGLAFLRGLSYHDGALVVTKAGYYYIYSKVQLGGVGCPLGLAGTITHGLYKRTPRYPEELELLVSQQSPCGRATSSSRVWWDSSFLGGVVHLEAGEKVVVRVSDERLVRLRDGTRSYFGAFMV
notes: Printed mutations: S160G, L220S; Soluble protein carries an N-terminal His tag
B4: LIGHT-29 (ligand)
chain: DGPAGSWEQLIQERRSHEVNPAAHLTGANSSLTGSGGPLLWETQLGLAFLRGLSYHDGALVVTKAGYYYIYSKVQLGGVGCPLGLANTITHGLYKRTPRYPEELELLVSQQSPCGRATSSSRVWWDSSFLGGVVHLEAGEKVVVRVSDERLVRLRDGTRSYFGAFMV
notes: Printed mutations: S160N, L220S; Soluble protein carries an N-terminal His tag
B5: LIGHT-26 (ligand)
chain: DGPAGSWEQLIQERRSHEVNPAAHLTGANSSLTGSGGPLLWETQLGLAFLRGLSYHDGALVVTKAGYYYIYSKVQLGGVGCPLGLAHTITHGLYKRTPRYPEELELLVSQQSPCGRATSSSRVWWDSSFLGGVVHLEAGEKVVVRVSDQRLVRLRDGTRSYFGAFMV
notes: Printed mutations: S160H, L220S, E222Q; Soluble protein carries an N-terminal His tag
B6: LIGHT-34 (ligand)
chain: DGPAGSWEQLIQERRSHEVNPAAHLTGANSSLTGSGGPLLWETQLGLAFLRGLSYHDGALVVTKAGYYYIYSKVQLGGVGCPLGLASSITHGLYKRTPRYPEELELLVSQQSPCGRATSSSRVWWDSSFLGGVVHLEAGEKVVVRVSDERLVRLRDGTRSYFGAFMV
notes: Printed mutations: T161S, L220S; Soluble protein carries an N-terminal His tag
B7: LIGHT-22 (ligand)
chain: DGPAGSWEQLIQERRSHEVNPAAHLTGANSSLTGSGGPLLWETQLGLAFLRGLSYHDGALVVTKAGYYYIYSKVQLGGVGCPLGLAGSITHGLYKRTPRYPEELELLVSQQSPCGRATSSSRVWWDSSFLGGVVHLEAGEKVVVRVSDERLVRLRDGTRSYFGAFMV
notes: Printed mutations: S160G, T161S, L220S; Soluble protein carries an N-terminal His tag
B8: LIGHT-37 (ligand)
chain: DGPAGSWEQLIQERRSHEVNPAAHLTGANSSLTGSGGPLLWETQLGLAFLRGLSYHDGALVVTKAGYYYIYSKVQLGGVGCPLGLASTITHGLYKRTPRYPEELELLVSQQSPCGRTTSSSRVWWDSSYLGGVVHLEAGEEVVVRVLDERLVRLRDGTRSYFGAFMV
notes: Printed mutations: A190T, F202Y, K214E; Soluble protein carries an N-terminal His tag
B9: LIGHT-27 (ligand)
chain: DGPAGSWEQLIQERRSHEVNPAAHLTGANSSLTGSGGPLLWETQLGLAFLRGLSYHDGALVVTKAGYYYIYSKVQLGGVGCPLGLANSITHGLYKRTPRYPEELELLVSQQSPCGRATSSSRVWWDSSFLGGVVHLEAGEKVVVRVSDDRLVRLRDGTRSYFGAFMV
notes: Printed mutations: S160N, T161S, L220S, E222D; Soluble protein carries an N-terminal His tag
B10: LIGHT-35 (ligand)
chain: DGPAGSWEQLIQERRSHEVNPAAHLTGANSSLTGSGGPLLWETQLGLAFLRGLSYHDGALVVTKAGYYYIYSKVQLGGVGCPLGLASSITHGLYKRTPRYPEELELLVSQQSPCGRATSSSRVWWDSSFLGGVVHLEAGEKVVVRVSDNRLVRLRDGTRSYFGAFMV
notes: Printed mutations: T161S, L220S, E222N; Soluble protein carries an N-terminal His tag
B11: LIGHT-21 (ligand)
chain: DGPAGSWEQLIQERRSHEVNPAAHLTGANSSLTGSGGPLLWETQLGLAFLRGLSYHDGALVVTKAGYYYIYSKVQLGGVGCPLGLAGPITHGLYKRTPRYPEELELLVSQQSPCGRATSSSRVWWDSSFLGGVVHLEAGEKVVVRVTDERLVRLRDGTRSYFGAFMV
notes: Printed mutations: S160G, T161P, L220T; Soluble protein carries an N-terminal His tag
B12: LIGHT-24 (ligand)
chain: DGPAGSWEQLIQERRSHEVNPAAHLTGANSSLTGSGGPLLWETQLGLAFLRGLSYHDGALVVTKAGYYYIYSKVQLGGVGCPLGLAGTITHGLYKRTPRYPEELELLVSQQSPCGRTTSSSRVWWDSSFLGGVVHLEAGEKVVVRVSDERLVRLRDGTRSYFGAFMV
notes: Printed mutations: S160G, A190T, L220S; Soluble protein carries an N-terminal His tag
B13: LIGHT-28 (ligand)
chain: DGPAGSWEQLIQERRSHEVNPAAHLTGANSSLTGSGGPLLWETQLGLAFLRGLSYHDGALVVTKAGYYYIYSKVQLGGVGCPLGLANTITHGLYKRTPRYPEELELLVSQQSPCGRATSSSRVWWDSSFLGGVVHLEAGEEVVVRVLDERLVRMRDGTRSYFGAFMV
notes: Printed mutations: S160N, K214E, L227M; Soluble protein carries an N-terminal His tag
B14: LIGHT-36 (ligand)
chain: DGPAGSWEQLIQERRSHEVNPAAHLTGANSSLTGSGGPLLWETQLGLAFLRGLSYHDGALVVTKAGYYYIYSKVQLGGVGCPLGLASTITHGLYKRTPRYPEELELLVSQQSPCGRATSSSRVWWDSSFLGGVVYLEAGEKVVVRVLDERLVRLRDGTRSYFGAFMV
notes: Printed mutations: H208Y; Soluble protein carries an N-terminal His tag
B15: LIGHT-25 (ligand)
chain: DGPAGSWEQLIQERRSHEVNPAAHLTGANSSLTGSGGPLLWETQLGLAFLRGLSYHDGALVVTKAGYYYIYSKVQLGGVGCPLGLAHTITHGLYKRTPRYPEELELLVSQQSPCGRATSSSRVWWDSSFLGGVVHLEAGEKVVVRVSDERLVRLRDGTRSYFGAFMV
notes: Printed mutations: S160H, L220S; Soluble protein carries an N-terminal His tag
B16: LIGHT-31 (ligand)
chain: DGPAGSWEQLIQERRSHEVNPAAHLTGANSSLTGSGGPLLWETQLGLAFLRGLSYHDGALVVTKAGYYYIYSKVQLGGVGCPLGLARSITHGLYKRTPRYPEELELLVSQQSPCGRATSSSRVWWDSSFLGGVVHLEAGEKVVVRVSDERLVRLRDGTRSYFGAFMV
notes: Printed mutations: S160R, T161S, L220S; Soluble protein carries an N-terminal His tag

Key:
[1] = target: T3, mouse LTβR extracellular domain fused with an Fc fragment at the C-terminus (mouse, UniProt P50284 31-223); test: ELISA on coated target-Fc
T3 construct: extracellular domain; Bought; also called mLTβR; not shown: Fc fragment at the C-terminus
Description: (§1) Nunc MaxiSorp 96-well plates (Thermofisher) were coated with target proteins (1 μg/ml), and then blocked with 2% BSA-PBS buffer for one hour. Serial dilutions of the LIGHT muteins were added with a maximum concentration of 200 ng/ml. The plates were incubated for one hour, washed four times with PBST, and then incubated with mouse anti-His tag antibody (#105327, Sino Biological) for 1 hour. The plates were further incubated with HRP-conjugated goat anti-mouse secondary antibody (#SSA006, Sino Biological) before being washed three times with PBST and treated with TMB substrate (#34029, ThermoFisher). The plates were read at 450 nm on a SpectraMax M5 microplate reader (Molecule Devices). The ELISA results were analyzed using GraphPad Prism 9.0 software and the EC50s (half maximal effective concentration) were summarized in Table 5-1 and Table 5-2.

[2] = target: T4, human LTβR extracellular domain fused with an Fc fragment at the C-terminus (human, UniProt P36941 31-227); test: ELISA on coated target-Fc
T4 construct: extracellular domain; Bought; also called hLTβR; not shown: Fc fragment at the C-terminus
Description: as §1

[3] = target: T1, human HVEM extracellular domain fused …; test: ELISA on coated target-Fc
Description: as §1

[4] = target: T2, mouse HVEM extracellular domain fused …; test: phage ELISA
Description: Individual clones from the fourth selection round were grown in 96-well deep well blocks in 100 μl of 2YT broth supplemented with 50 μg/ml ampicillin at 37° C. and 220 rpm for 5 hours. Then, 5 μl of helper phages were added to each well and incubated at 37° C. for 30 minutes. After centrifuging at 3,000 rpm for 10 minutes, the cells were resuspended and grown overnight in 150 μl/well of 2YT broth supplemented with 50 μg/ml ampicillin and 50 μg/ml kanamycin.
For the ELISA screening, 96-well ELISA plates were coated with target proteins (1 μg/ml in PBS) at 4° C. overnight and then blocked with 2% BSA for 2 hours at room temperature. The supernatant containing phage particles was added to the plates and incubated at room temperature for 1 hour. After incubation, the plates were washed five times with PBST. HRP (horseradish peroxidase) conjugated anti-M13 antibody (Sino Biological, China) was added to the wells and incubated at room temperature for 1 hour. Following another round of washing five times with PBST, 50 μl of TMB (3,3′, 5,5″-tetramethylbenzidine, #34029, ThemoFisher) was added to each well. After 5 minutes, the reaction was stopped by adding 50 μl stop solution (#C1058, Solarbio, China). The absorbance at 450 nm (OD450) was measured using a plate reader (SpectraMax M5, Molecule Devices). Wells coated with BSA were used as negative controls. Phage clones with an ELISA score ratio (target/BSA)>3 were considered positive clones.

T4 sequence (P36941 31-227): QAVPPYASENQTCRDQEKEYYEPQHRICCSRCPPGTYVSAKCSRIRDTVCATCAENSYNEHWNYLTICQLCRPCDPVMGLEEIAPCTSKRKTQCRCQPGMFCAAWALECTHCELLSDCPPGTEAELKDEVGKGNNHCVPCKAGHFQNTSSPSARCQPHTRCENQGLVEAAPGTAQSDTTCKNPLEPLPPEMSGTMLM
T3 sequence (P50284 31-223): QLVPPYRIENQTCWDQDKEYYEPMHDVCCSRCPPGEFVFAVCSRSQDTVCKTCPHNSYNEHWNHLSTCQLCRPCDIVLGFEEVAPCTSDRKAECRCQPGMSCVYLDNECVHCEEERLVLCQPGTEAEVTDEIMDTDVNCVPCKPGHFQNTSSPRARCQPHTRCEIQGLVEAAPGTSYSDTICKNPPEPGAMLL

Binder	binding result [1]	EC50 [2] [µg/mL]	EC50 [3] [µg/mL]	binding result [4]	EC50 [1] [µg/mL]	binding result [2]
B1	binds	0.0521	0.0496	binds		
B2		0.0542	0.049	binds	0.0239	
B3		0.0892	0.0588	binds	0.0916	
B4		0.0452	0.0428	binds	0.0209	
B5		0.0727	0.0484	binds	0.0483	
B6		0.059	0.0202	binds	0.0446	
B7		0.0686	0.0471	binds	0.0624	
B8		0.0434	0.037	binds	0.0678	
B9		0.0827	0.0504	binds	0.0642	
B10		0.0703	0.0416	binds	0.0383	
B11		0.0715	0.0422	binds	0.134	
B12	binds		0.0632	binds		binds
B13		0.0811	0.0873	binds	0.256	
B14		0.19	0.137	binds	0.27	
B15			0.0542	binds	0.0323	binds
B16		0.0867	0.051	binds	0.0747	
